B1: Friend leukemia integration 1 transcription factor, residues 116 to 197; numbered along this chain, Q01543 (parent)
chain: NMTTNERRVIVPADPTLWTQEHVRQWLEWAIKEYSLMEIDTSFFQNMDGKELCKMNKEDFLRATTLYNTEVLLSHLSYLRES
B2: Transcription factor SOX-4, residues 60 to 127; numbered along this chain, Q06945 (parent)
chain: KRPMNAFMVWSQIERRKIMEQSPDMHNAEISKRLGKRWKLLKDSDKIPFIREAERLRLKHMADYPDYK

Variants of: B1
Experiment: abundance fitness (aPCA) (normalised: wild type 0, dead -1); higher = more abundant; growth selection in yeast, the domain comes from the species named
Conditions: Homo sapiens

Abundance fitness of substitutions, site by site:
R80: S 0.103
L79: F -0.657
H75: Y -0.201
L72: A -0.463; G -1.01; T -0.814; P -0.78; K -1; V -0.6; W -1.1; M -0.099; I 0.063; R -1.12; C -0.372; Q -0.949; F -0.231
V71: T -0.145; N -0.391; Q -0.035; Y -0.239; P -0.401; K 0.051; M -0.065; L -0.093; S -0.147; W -0.047; R 0.02
L76: E -0.794; M -0.218; H -0.841; Q -0.879; P -0.7; N -0.799; I -0.391; S -0.553; F -0.555; G -0.28; V -0.432; R -0.723; T -0.916
S77: P -0.216; T 0.032
E81: D -0.092
S74: Q -0.405; Y 0.134; L -0.28; H -0.066; P -0.417; R 0.042; D 0.014; E 0.271; F -0.404; G 0.026; W -0.561; T -0.076; K 0.133; M -0.049; C -0.101; V -0.567; A 0.029
Y78: V 0.124
L73: Y -0.281; C -0.057; W 0.039; M -0.061; R -0.144; F -0.1; P -0.854; G -0.27; E -0.343; V -0.085; T -0.044; I -0.21; A -0.133; K -0.199; H -0.173; N -0.631
S82: P -0.125; F -0.112

Variants of: B2
Experiment: as above
Conditions: Homo sapiens

Abundance fitness of substitutions, site by site:
M4: C -0.709; N -0.265; A -0.227; D -0.28; V -0.068; T -0.077; Q -0.412; E -0.202; I 0.047; L -0.105; P 0.002; S -0.492; G -0.311; Y -0.236; H -0.589; F -0.033
K1: W -0.336; G -0.054; L -0.347; E -0.317; S -0.011; P -0.549; A -0.193; M -0.214; Q -0.788; T -0.379; D 0.048; C -0.206; Y -0.116
V9: S -0.803; Q -0.76; L 0.037; F -0.482; M -0.266; C -0.258; I 0.066; P -0.617; N -0.609; R -1; H -0.733; K -0.978; T -0.38; A -0.473; E -0.856; W -0.694
M8: D 0.088; T -0.068; R -0.176; W -0.204; S -0.072; I -0.181; P -1.01; L -0.084; C -0.278; E 0.232; G 0.025; H 0.042; V -0.178; Q 0.193; K -0.205; F -0.133; A 0.023; N -0.242
P3: I -0.416; M -0.163; A -0.114; R -0.149; K -0.103; V -0.136; W -0.561; E 0.072; S -0.122; G -0.166; N -0.108; L -0.216; Q -0.048; F -0.186; H -0.055; Y -0.182
A6: R -0.713; D -0.607; E -0.656; N -0.943; W -0.896; I -0.794; P -0.111; L -0.843; V -0.507; Q -0.617; F -0.671; C -0.692; T -0.797; K -0.791; H -1.12; G -0.079; S -0.495; M -1.01
W10: E -0.964; S -0.893; M -1.08; Q -0.921; A -1.03; R -0.649; F -0.155; T -0.958; G -0.954; C -1.03; Y -0.554; V -0.621; L -0.999; P -0.751
R16: Y -0.416; I -0.216; Q -0.023; T -0.077; A -0.011; F -0.368; V -0.111; P -0.234; G -0.254; C -0.206; D -0.223; L -0.154; M -0.212; S -0.174
R2: E -0.362; N -0.154; K -0.135; Y -0.374; A -0.08; W -0.164; G -0.121; T -0.457; D -0.053; Q -0.039; V -0.08; S 0.003; M -0.088; P -0.519; L -0.275; I -0.012; H -0.305; F -0.113
R15: M -0.177; E -0.354; A -0.38; C -0.357; H -0.428; T -0.345; F -0.464; S -0.335; D -0.752; W -0.502; I -0.25; P -0.686; L -0.512; K -0.022; Q -0.3; V -0.495; N -0.738; Y -0.375
Q12: W -0.662; I -0.101; V -0.434; P -0.812; S -0.134; E 0.05; C -0.07; L -0.194; G -0.265; N -0.015; F -0.494; A -0.138; T -0.166; Y -0.343; D 0.179; H -0.116; R -0.267
K17: W -0.87; G -0.783; V -0.318; P -0.987; Y -0.421; D -0.459; E -1.1; S -0.439; A -0.765; C -0.857; Q -0.092; F -0.353; I -0.178; H -0.426; M -0.401; L -0.215; N -0.262
I18: K -0.892; S -0.665; A -0.484; T -0.701; V -0.482; F -0.351; E -0.63; M -0.169; Q -0.948; C -0.278; W -0.787; H -0.627
S11: L -0.432; V -0.529; Y -0.29; E -0.031; M -0.394; P -0.99; D -0.758; H -0.703; Q -0.323; F -0.217; C -0.206; I -0.737; W -0.608; T -0.69; R -0.63; N -0.762
I13: K -0.195; C -0.29; R -0.401; L -0.127; H 0.027; P -0.484; W -0.531; E -0.163; N -0.164; T -0.235; Q -0.12; M -0.228; Y -0.456; G -0.222; V -0.186; F -0.21
N5: G -0.278; D -0.032; V -0.828; A -0.559; Q -0.585; I -0.665; S 0.016; R -0.879; K -0.553; Y -0.472; M -0.842; W -0.439; H -0.632; L -0.589; T 0.095; P -0.546

— the Human Domainome abundance scans (Beltran et al. 2025)
